± gives the standard deviation of the averaged measurements.
System: ATP
Assay: switch fluorescence ratio, 500 uM ATP over buffer (Cy3 cluster intensity, sum of 5 cycles each) (fold (ratio)); higher = stronger signal-on switching upon ATP binding; sequences stand for … in TCGTCGGCAGCGTCAGATGTGTATAAGAGACAGTTTTTTTTTTTTTTTTTTTTTTTTT…TC
Settings: aptamer strand: ATP DNA aptamer (quencher-CACCTGGGGGAGTATTGCGGAGGAAGG + anchor), 100 nM annealed; ATP concentration: 500 uM
Procedure, shortened: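 Cy3-labelled switching-strand clusters on a modified Illumina MiSeq flow-cell were annealed to 100 nM quencher-labelled ATP aptamer, imaged in selection buffer, then imaged after 15 min with 500 uM ATP at 22 °C. Five buffer/ATP cycles ran, with NaOH stripping and re-annealing between them. The fluorescence ratio is summed target-cycle over summed buffer-cycle Cy3 intensity per cluster, averaged per switch-domain sequence. Clusters outside 100-1000 RFU were excluded.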
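Also: ATP exposure 15 min at 22 °C before imaging.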

TTTTCCAAGG
switch fluorescence ratio: 1.06 ± 0.031

TTTTCCAATG
switch fluorescence ratio: 1.02 ± 0.017

TTTTCCACGG
switch fluorescence ratio: 1.21 ± 0.16

TTTTCCATTT
switch fluorescence ratio: 0.99 ± 0.023

TTTTCCCATT
switch fluorescence ratio: 1.02 ± 0.075

TTTTCCCGAA
switch fluorescence ratio: 0.967 ± 0.026

TTTTCCCGGG
switch fluorescence ratio: 1.13 ± 0.15

TTTTCCTGCT
switch fluorescence ratio: 1.07 ± 0.082

TTTTCGACTA
switch fluorescence ratio: 0.97 ± 0.043

TTTTCGATTT
switch fluorescence ratio: 1.42 ± 1

TTTTCGCTAT
switch fluorescence ratio: 2.29 ± 1.6

TTTTCGGCTC
switch fluorescence ratio: 1.04 ± 0.048

TTTTCGGGAT
switch fluorescence ratio: 1.19 ± 0.42

TTTTCGGTTT
switch fluorescence ratio: 1 ± 0.051

TTTTCGTCCT
switch fluorescence ratio: 1.18 ± 0.18

TTTTCGTGTT
switch fluorescence ratio: 1 ± 0.032

TTTTCGTTTT
switch fluorescence ratio: 1.04 ± 0.082

TTTTCTGAGG
switch fluorescence ratio: 1.01 ± 0.044

TTTTCTTGAA
switch fluorescence ratio: 0.9852 ± 0.0038

TTTTCTTTGC
switch fluorescence ratio: 1.03 ± 0.042

TTTTCTTTTT
switch fluorescence ratio: 1.06 ± 0.14

TTTTGAAGTG
switch fluorescence ratio: 1.02 ± 0.034

TTTTGAAGTT
switch fluorescence ratio: 1 ± 0.039

TTTTGAATCT
switch fluorescence ratio: 0.953 ± 0.033

TTTTGAATTG
switch fluorescence ratio: 0.9841 ± 0.005

TTTTGACAGT
switch fluorescence ratio: 0.996 ± 0.039

TTTTGACATT
switch fluorescence ratio: 1.05 ± 0.032

TTTTGACCGA
switch fluorescence ratio: 0.976 ± 0.073

TTTTGACGAG
switch fluorescence ratio: 1.016 ± 0.0033

TTTTGACGTT
switch fluorescence ratio: 1.04 ± 0.042

TTTTGAGATA
switch fluorescence ratio: 0.97489 ± 3.4e-05

TTTTGAGGAC
switch fluorescence ratio: 1.034 ± 0.0035

TTTTGAGGGA
switch fluorescence ratio: 0.9877 ± 0.002

TTTTGATAGT
switch fluorescence ratio: 0.991 ± 0.026

TTTTGATCCG
switch fluorescence ratio: 1.09 ± 0.082

TTTTGATTCT
switch fluorescence ratio: 1.01 ± 0.028

TTTTGCAAAT
switch fluorescence ratio: 1.13 ± 0.11

TTTTGCACTT
switch fluorescence ratio: 1.022 ± 0.0012

TTTTGCAGGA
switch fluorescence ratio: 1.05 ± 0.14

TTTTGCATTG
switch fluorescence ratio: 1.07 ± 0.058

TTTTGCCGTT
switch fluorescence ratio: 1.01 ± 0.019

TTTTGCGAAC
switch fluorescence ratio: 1.94 ± 1.2

TTTTGCGATT
switch fluorescence ratio: 1.015 ± 0.0065

TTTTGCGCCG
switch fluorescence ratio: 1.06 ± 0.06

TTTTGCGGGA
switch fluorescence ratio: 1.01 ± 0.057

TTTTGCGTCT
switch fluorescence ratio: 1.06 ± 0.071

TTTTGCTGTA
switch fluorescence ratio: 1.04 ± 0.099

TTTTGCTTGT
switch fluorescence ratio: 0.996 ± 0.015

TTTTGCTTTT
switch fluorescence ratio: 0.998 ± 0.027

TTTTGGAACG
switch fluorescence ratio: 0.99 ± 0.031

TTTTGGAAGC
switch fluorescence ratio: 1.03 ± 0.034

TTTTGGAAGT
switch fluorescence ratio: 0.993 ± 0.042

TTTTGGACGC
switch fluorescence ratio: 1.26 ± 0.43

TTTTGGATAA
switch fluorescence ratio: 1.016 ± 0.0051

TTTTGGATGC
switch fluorescence ratio: 1.05 ± 0.045

TTTTGGCAAC
switch fluorescence ratio: 1.04 ± 0.079

TTTTGGCCGT
switch fluorescence ratio: 1.1 ± 0.15

TTTTGGCCTT
switch fluorescence ratio: 0.997 ± 0.015

TTTTGGCGCA
switch fluorescence ratio: 1.01 ± 0.0046

TTTTGGCGCT
switch fluorescence ratio: 1.005 ± 0.008

TTTTGGCGTA
switch fluorescence ratio: 1.04 ± 0.037

TTTTGGGCCC
switch fluorescence ratio: 1.04 ± 0.076

TTTTGGGCTT
switch fluorescence ratio: 1.12 ± 0.22

TTTTGGGGC
switch fluorescence ratio: 1.04 ± 0.013

TTTTGGGGGG
switch fluorescence ratio: 1.02 ± 0.081

TTTTGGGTCC
switch fluorescence ratio: 1.06 ± 0.04

TTTTGGGTTA
switch fluorescence ratio: 0.992 ± 0.043

TTTTGGGTTG
switch fluorescence ratio: 1.03 ± 0.076

TTTTGGTATA
switch fluorescence ratio: 1.05 ± 0.055

TTTTGGTCCG
switch fluorescence ratio: 1.034 ± 0.0074

TTTTGGTGG
switch fluorescence ratio: 0.974 ± 0.033

TTTTGGTTAG
switch fluorescence ratio: 0.983 ± 0.015

TTTTGGTTTG
switch fluorescence ratio: 1 ± 0.034

TTTTGTACGC
switch fluorescence ratio: 1.097 ± 0.0065

TTTTGTAGCT
switch fluorescence ratio: 0.963 ± 0.023

TTTTGTCAAA
switch fluorescence ratio: 1.02 ± 0.035

TTTTGTCACT
switch fluorescence ratio: 1.034 ± 0.0031

TTTTGTGTTC
switch fluorescence ratio: 0.993 ± 0.027

TTTTGTTAGA
switch fluorescence ratio: 1.03 ± 0.022

TTTTGTTGTG
switch fluorescence ratio: 0.999 ± 0.034

TTTTGTTTCA
switch fluorescence ratio: 1 ± 0.022

TTTTGTTTCG
switch fluorescence ratio: 1.01 ± 0.028

TTTTGTTTGT
switch fluorescence ratio: 1.01 ± 0.037

TTTTGTTTT
switch fluorescence ratio: 1.02 ± 0.027

TTTTGTTTTC
switch fluorescence ratio: 1.11 ± 0.23

TTTTTAAA
switch fluorescence ratio: 0.988 ± 0.017

TTTTTAAAGT
switch fluorescence ratio: 0.993 ± 0.026

TTTTTAACTC
switch fluorescence ratio: 1.03 ± 0.021

TTTTTAAGAG
switch fluorescence ratio: 1 ± 0.014

TTTTTAAGGA
switch fluorescence ratio: 1.04 ± 0.048

TTTTTAAGGT
switch fluorescence ratio: 1 ± 0.015

TTTTTAATGT
switch fluorescence ratio: 0.998 ± 0.062

TTTTTACAGA
switch fluorescence ratio: 1.04 ± 0.025

TTTTTACCTT
switch fluorescence ratio: 1.07 ± 0.046

TTTTTACGAA
switch fluorescence ratio: 1.01 ± 0.022

TTTTTACGGC
switch fluorescence ratio: 1.02 ± 0.016

TTTTTACTGT
switch fluorescence ratio: 1.01 ± 0.017

TTTTTAGAAG
switch fluorescence ratio: 0.985 ± 0.01

TTTTTAGGAA
switch fluorescence ratio: 1.04 ± 0.055

TTTTTAGGAT
switch fluorescence ratio: 1.11 ± 0.17

TTTTTAGTAT
switch fluorescence ratio: 1.01 ± 0.035

TTTTTATCAT
switch fluorescence ratio: 0.998 ± 0.037

TTTTTATCTG
switch fluorescence ratio: 0.9654 ± 0.002

TTTTTATGAC
switch fluorescence ratio: 1.01 ± 0.029

TTTTTATGAT
switch fluorescence ratio: 0.983 ± 0.022

TTTTTATGC
switch fluorescence ratio: 0.975 ± 0.071

TTTTTATGCC
switch fluorescence ratio: 0.963 ± 0.05

TTTTTATGCG
switch fluorescence ratio: 0.999 ± 0.06

TTTTTATTAG
switch fluorescence ratio: 0.983 ± 0.027

TTTTTATTGC
switch fluorescence ratio: 1 ± 0.035

TTTTTCAACC
switch fluorescence ratio: 1.02 ± 0.017

TTTTTCAAGT
switch fluorescence ratio: 1.1 ± 0.29

TTTTTCACGC
switch fluorescence ratio: 1.04 ± 0.019

TTTTTCAGTG
switch fluorescence ratio: 0.991 ± 0.039

TTTTTCCAT
switch fluorescence ratio: 1 ± 0.02

TTTTTCCATT
switch fluorescence ratio: 1.01 ± 0.027

TTTTTCCTGT
switch fluorescence ratio: 1.01 ± 0.011

TTTTTCCTTG
switch fluorescence ratio: 1.04 ± 0.018

TTTTTCCTTT
switch fluorescence ratio: 1.02 ± 0.033

TTTTTCGCTT
switch fluorescence ratio: 1.06 ± 0.077

TTTTTCGTCA
switch fluorescence ratio: 1.037 ± 0.0074

TTTTTCGTGT
switch fluorescence ratio: 0.975 ± 0.038

TTTTTCTATT
switch fluorescence ratio: 0.988 ± 0.019

TTTTTCTTCG
switch fluorescence ratio: 1.21 ± 0.099

TTTTTCTTTG
switch fluorescence ratio: 1.04 ± 0.065

TTTTTGACAC
switch fluorescence ratio: 1.26 ± 0.38

TTTTTGAGAG
switch fluorescence ratio: 0.998 ± 0.032

TTTTTGAGC
switch fluorescence ratio: 1.011 ± 0.0086

TTTTTGAGGA
switch fluorescence ratio: 0.995 ± 0.017

TTTTTGCCTA
switch fluorescence ratio: 1.015 ± 0.0089

TTTTTGCGCT
switch fluorescence ratio: 1.04 ± 0.047

TTTTTGCTAG
switch fluorescence ratio: 0.986 ± 0.013

TTTTTGCTCA
switch fluorescence ratio: 0.9912 ± 0.0055

TTTTTGCTGT
switch fluorescence ratio: 2.91 ± 3.3

TTTTTGCTTT
switch fluorescence ratio: 1.06 ± 0.099

TTTTTGGCAT
switch fluorescence ratio: 1.01 ± 0.033

TTTTTGGCGC
switch fluorescence ratio: 1.01 ± 0.032

TTTTTGGGTT
switch fluorescence ratio: 1.02 ± 0.048

TTTTTGGTAT
switch fluorescence ratio: 1.01 ± 0.047

TTTTTGGTTA
switch fluorescence ratio: 1 ± 0.016

TTTTTGTAAT
switch fluorescence ratio: 1.04 ± 0.055

TTTTTGTATA
switch fluorescence ratio: 0.979 ± 0.027

TTTTTGTATT
switch fluorescence ratio: 1.03 ± 0.02

TTTTTGTGA
switch fluorescence ratio: 0.995 ± 0.026

TTTTTGTTC
switch fluorescence ratio: 0.99 ± 0.023

TTTTTTACGG
switch fluorescence ratio: 1.02 ± 0.019

TTTTTTAGGA
switch fluorescence ratio: 1.01 ± 0.019

TTTTTTAGGG
switch fluorescence ratio: 0.988 ± 0.029

TTTTTTATAT
switch fluorescence ratio: 0.987 ± 0.025

TTTTTTATCA
switch fluorescence ratio: 0.98 ± 0.029

TTTTTTCATG
switch fluorescence ratio: 0.988 ± 0.033

TTTTTTCGGC
switch fluorescence ratio: 0.988 ± 0.022

TTTTTTCGTC
switch fluorescence ratio: 1.02 ± 0.011

TTTTTTGGAT
switch fluorescence ratio: 1.01 ± 0.022

TTTTTTGGGC
switch fluorescence ratio: 0.99 ± 0.068

TTTTTTGTCG
switch fluorescence ratio: 0.993 ± 0.053

TTTTTTGTGA
switch fluorescence ratio: 1 ± 0.08

Reference: the supplement of paper PMC10126150
